{"source": "paper PMC11642994", "about": "“AGC family kinase of Entamoeba histolytica: Decoding the members biochemically” (PLOS Pathogens, 2024)", "molecules": {"B1": {"name": "EhAGCK2 WT: recombinant full-length wild-type His-tagged AGC family kinase 2 of E. histolytica (protein)", "chain": "MSVKTGWGIKEGGSWKTWKRRMFKLSEGKIEYFKDEGMTKKMGDIELSKVTHVLAVDQYKKRKNLIRIITPSRTYHISVNEESDRDSWVEAIRGMIGDNKEKKTQEEKEENKISMEDFDIITLLGKGAFGKVMLVKYKKEGKIYAMKTVEKAQIIDSNEVEHILSEKVVLSQINNPFLVNMHYSFQTPTHLVFILDYCAGGELFSYLQKHPAGLPEVDVKFYAAQIVLALEHMHSTGIIYRDIKPENILFEKDGYLRMTDFGLAKSTKKGTTNTFCGTPEYLAPEVVEGLDYNEYIDWWGLGILIYEMLFTQSPFLAETMEELYENILQREPKYPSTKPITEECMNFINSLLIKEPSKRLTDPDQIKTHPWFNGFNFDDLYKKKLTPPYVPKIQSQTDTSNFDDEITQEEVDLKTGVEVVADNRFFTDFTYVQK", "modifications": "left off: His tag, end not stated, kept", "notes": "recombinant full-length wild-type His-tagged AGC family kinase 2 of E. histolytica"}, "B2": {"name": "KDD1: kinase-dead domain EhAGCK1 (K147A and D241A) (protein)", "chain": "MEEKTQGWLMKEGGSWKSWKKRYFVLDNDTLYYYKEQDKKTLMGTMNLSLATHITAVDNYHKKYENIIRICTPSRTFHLSAANEEERLAWLTSIICHSEKTNICKPRISSVPVTQKDFDVKCLLGKGAYGKVFLVEMISTHEIFAMATIEKKQIIEYEEIEHTMSERRILSKLHHPFLVNLYYSFQTPTHLFYIIDYCPGGEFYYYLQKNGKVSEEDAKFYAAQILLAIEHLHSSNIVYRAIKPENILIGADGYLRLTDFGLSKENVTKENTTSTFCGTPEYLAPEVVVGKDYSEPVDWWGFGILIYEMIHGHAPFTSEDIQQLFQKIIHDPVSFPSASYPSADCKECIVMLLEKDPEKRLTDPNRIKSHCWFKGFDWEGLFQKKLSPPFVPVLKDKTDTSNFNEDIINETAKIDEGEVVDSKDYFNDFTYCK", "modifications": "left off: His tag, end not stated, kept"}}, "key": {"[1]": {"target": "EhAGCK1 WT (Entamoeba histolytica, UniProt C4M2W0)", "sequence (C4M2W0 entry or part of it)": "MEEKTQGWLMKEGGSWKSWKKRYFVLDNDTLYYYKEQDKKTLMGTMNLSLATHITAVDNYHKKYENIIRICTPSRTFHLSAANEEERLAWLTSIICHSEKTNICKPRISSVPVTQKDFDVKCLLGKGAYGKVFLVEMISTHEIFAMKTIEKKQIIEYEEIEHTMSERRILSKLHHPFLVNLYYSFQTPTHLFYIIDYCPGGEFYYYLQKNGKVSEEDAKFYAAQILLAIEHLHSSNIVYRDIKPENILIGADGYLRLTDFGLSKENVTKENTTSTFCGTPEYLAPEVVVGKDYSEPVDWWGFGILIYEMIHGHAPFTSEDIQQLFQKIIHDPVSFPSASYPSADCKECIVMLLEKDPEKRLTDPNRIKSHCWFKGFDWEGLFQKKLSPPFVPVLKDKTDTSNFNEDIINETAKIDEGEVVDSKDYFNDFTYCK", "experiment": "Microscale Thermophoresis (MST), EhAGCK1 WT", "assay_type": "binding", "protocol": "Microscale Thermophoresis (MST) was performed in the presence of full-length and kinase-dead EhAGCK1 and EhAGCK2 proteins, along with HsGSK3, EhRhoGEF, and EhCoactosin peptide substrates. Proteins were labelled using a His-tag labelling kit, RED-tris-NTA 2nd Generation (Nano Temper Technologies, San Francisco, CA, USA). A brief labelling reaction was performed in a buffer containing (50 mM Tris-Cl pH 8, 150 mM NaCl, 1 mM β-ME and 5% glycerol) with a protein concentration of 20 nM and a molar dye: protein ratio of approximately 3:1. The mixture was kept at room temperature for 30 min, followed by centrifugation at 15000 g for 10 min at 4°C. A series of 16 1:1 dilutions were prepared using the same buffer, resulting in peptide concentrations ranging from 500 μM to […]. Following a 10 min incubation, the samples were loaded into standard monolith NT.115 capillaries from Nano Temper Technologies. […] Data from three independently pipetted measurements were analysed using MO. […]\nThe kinase assay data presented here are the mean ± standard error (SE) of n≥3 of three independent experiments. The Km and Vmax were determined from a direct, nonlinear fit of [V] versus [S] plots using the Michaelis-Menten equation: V=Vmax[S]/Km+[S] using the GraphPad Prism 9.0 software package (GraphPad Software Inc., CA, USA). […]"}, "[2]": {"target": "T1, EhAGCK1 WT (Entamoeba histolytica AGC family kinase 1, EHI_188930), full-length recombinant His-tagged protein (Entamoeba histolytica, UniProt C4M2W0 1-433)", "T1 construct": "also called His-EhAGCK1; source: E. coli C41(DE3), purified (Ni2+-NTA)", "T1 sequence": "B2 chain with A147K, A241D", "experiment": "MST; His-tagged kinase labelled with RED-tris-NTA 2nd Generation dye, kept constant (50 nM by the legend); unlabelled peptide in 16 1:1 dilutions, 500 uM to 153 nM as printed; 50 mM Tris-Cl pH 8, 150 mM NaCl, 1 mM beta-ME, 5% glycerol; 25 C; Monolith NT.115, 50% LED, medium MST power", "conditions": "both partners purified"}, "[3]": {"target": "T2, EhAGCK2 WT (Entamoeba histolytica AGC family kinase 2, EHI_053040), full-length recombinant His-tagged protein (Entamoeba histolytica, UniProt C4M3C2 1-434)", "T2 construct": "source: E. coli C41(DE3), purified (Ni2+-NTA)", "T2 sequence": "B1 chain", "experiment": "MST; His-tagged kinase labelled with RED-tris-NTA 2nd Generation dye, kept constant (50 nM by the legend); unlabelled peptide in 16 1:1 dilutions, 500 uM to 153 nM as printed; 50 mM Tris-Cl pH 8, 150 mM NaCl, 1 mM beta-ME, 5% glycerol; 25 C; Monolith NT.115, 50% LED, medium MST power", "conditions": "both partners purified"}, "[4]": {"test_system": "autophosphorylation", "experiment": "ATP biotinylation kinase assay (autophosphorylation, SA-HRPO western blot)", "assay_type": "biochemical, Entamoeba histolytica", "conditions": "4 μM kinase (EhPDK1 2 μM), 20 μM biotin-labelled ATP, 40 mM Tris-Cl pH 7.8, 10 mM MgCl2, 2 mM DTT, 30°C, 1 h", "protocol": "ATP biotinylation assays were performed in the presence of 4 μM of EhAGCK1 (WT, T275D, and KDD1) and EhAGCK2 (WT, T274D, and KDD2) along with 2 μM of wild-type EhPDK1 in the presence of activation buffer 40 mM Tris-Cl pH 7.8, 10 mM MgCl2, and 2 mM DTT and incubated at 30°C for 1 h. The reaction was triggered by adding 20 μM biotin-labelled ATP (Catalogue NU-970-BIO, Jena Bioscience). 20 μl of the reaction was collected at the indicated time point and quenched by the addition of 4x SDS-loading dye. After gel electrophoresis, phosphorylated proteins were visualized by immunoblotting using HRPO-conjugated streptavidin (Invitrogen).\nATP biotinylated protein samples were separated by SDS-PAGE and then electro-transferred to PVDF membrane (Pall life sciences). The membrane was blocked overnight by 5% BSA (G-Biosciences) in TBS-T (TBS with 0.1% Tween 20) and stained with Ponceau S. This blocking process was done overnight at 4°C. The membrane was then incubated with 1:1000 dilution of HRPO-conjugated streptavidin (Invitrogen) at room temperature. Following antibody incubation, the blots were carefully cleaned with TBS-T. Band detection was carried out with a Millipore ECL kit."}, "[5]": {"test_system": "HsGSK3 peptide", "experiment": "ADP-Glo kinase activity of kinase variants with human GSK3 peptide in MgCl2 and MnCl2 buffers", "assay_type": "biochemical", "conditions": "for kinase activity with HsGSK3 peptide in presence of Mn2+: Mn2+ present", "protocol": "The phosphorylation activity of kinases was measured using the ADP-Glo kinase assay kit according to the manufacturer’s protocol with few modifications (Promega, Madison, WI, Catalogue number V6930). Assays were performed in a Corning 384-well low-volume white round bottom polystyrene NBS microplate with a total volume of 32 μl in the ratio of 1:1:2, corresponding to the kinase reaction, ADP-Glo reagent, and detection reagent, respectively. The kinase reaction was performed in an 8 μl volume containing 4 μl of purified protein kinases, 2 μl of peptide substrate, and 2 μl of ATP (Promega, Madison, WI). The working concentration of all the kinase reaction components was prepared in the standard kinase assay buffer (40 mM Tris-Cl pH 7.5, 20 mM MgCl2, 2 mM DTT). Along with other controls, only buffer-negative controls without protein kinase, substrate, and ATP were included in the kinase assay. Kinase assay reactions in each well were started immediately by adding ATP. The reactions were allowed to continue for 1 h at 30°C in the incubator chamber without shaking. The kinase assay was quenched by adding 8 μl of ADP-Glo reagent in each well before adding ADP-Glo reagent. The reaction plate was incubated for 5 min at room temperature. Termination reactions were allowed to proceed for 40 min at room temperature. ADP-Glo reagent, in addition to quenching the reaction, scavenges the unconsumed ATP from the reaction. In the final step of the ADP-Glo kinase assay, 16 μl of kinase detection reagent was added to each well and incubated for 40 min to simultaneously convert ADP to ATP and allow the newly synthesised ATP to be measured using a luciferase/luciferin reaction. The luminescent signal generated was measured using a SpectraMax i3x Multi-Mode Microplate Reader (Molecular Devices), and it was proportional to the ADP concentration produced and correlated with the kinase activity.\nThe kinase assay data presented here are the mean ± standard error (SE) of n≥3 of three independent experiments. The Km and Vmax were determined from a direct, nonlinear fit of [V] versus [S] plots using the Michaelis-Menten equation: V=Vmax[S]/Km+[S] using the GraphPad Prism 9.0 software package (GraphPad Software Inc., CA, USA). Additionally, the Microscale Thermophoresis (MST) experiments were conducted using the Monolith NT.11.5 instrument, with triplicate runs. Statistical comparisons were made using Student’s t-test. Differences in mean values were considered significant at *p-value≤0.05, **p-value≤0.01, ***p-value≤0.001, ****p-value≤0.0001."}, "[6]": {"conditions": "50 μM HsGSK3 peptide, 250 μM ATP, 60 min, 30°C"}}, "note": "Positions count from the first letter of the chain named. Numbers in names are those of the source. Entries after “also recorded” stand apart in the source; their conditions may differ. No end group written: not given here.", "data": [{"molecule": "GRPRTTSFAESCK [HsGSK3, reference compound]", "values": [{"measurement": "Kd", "setting": "[1]", "result": 2610, "unit": "nM"}]}, {"molecule": "SSPSSVPAAQSTTPVNVPK", "note": "[EhRhoGEF peptide (from RhoGEF, EHI_008090)]", "values": [{"measurement": "Kd", "setting": "[2]", "result": 307, "unit": "nM"}]}, {"molecule": "KAGGADYSFNTTSN", "note": "[EhCoactosin peptide (from Coactosin, EHI_168340)]", "values": [{"measurement": "Kd", "setting": "[3]", "result": 413, "unit": "nM"}]}, {"molecule": "B1", "values": [{"measurement": "autophosphorylation activity (words)", "setting": "[4]", "result": "exhibited autophosphorylation activity"}, {"measurement": "autophosphorylation activity (words)", "setting": "[4]; listed as EhAGCK2", "result": "able to accept biotin-ATP as substrate and underwent autophosphorylation"}, {"measurement": "kinase activity with HsGSK3 peptide in Mg2+ / without Mn2+ (words)", "setting": "[5]; Mg2+, 50 μM HsGSK3 peptide, kinase 0-80 μM, 250 μM ATP", "result": "phosphorylates HsGSK3 peptide"}, {"measurement": "ion preference for kinase activity", "setting": "[5]; MgCl2 versus MnCl2 buffer, HsGSK3 peptide", "result": "phosphorylates the peptide substrates in both MgCl2 and MnCl2 buffers; also recorded: optimal activity with Mg^2+"}, {"measurement": "kinase activity with HsGSK3 peptide in presence of Mn2+", "setting": "[5]; [6]", "result": "showed no increment, in fact, a small decrease in the average kinase activity"}, {"measurement": "Fold change (MgCl2: MnCl2)", "setting": "[5]; S1 Table, kinase activity in MgCl2 and MnCl2 buffers, 50 μM HsGSK3 peptide, 250 μM ATP, 60 min, 30°C", "result": 0.63}]}, {"molecule": "B2", "values": [{"measurement": "autophosphorylation activity (words)", "setting": "[4]", "result": "remain inactive"}, {"measurement": "kinase activity with HsGSK3 peptide in presence of Mn2+", "setting": "[5]; [6]", "result": "remained inactive"}]}]}
